According to article PMC4877809:

Target: CotB3 (class I P450 hydroxylase of the cyclooctatin pathway) (Streptomyces melanosporofaciens MI614-43F2) (UniProt C9K1X6)
Sequence of UniProt C9K1X6 (C9K1X6 whole entry): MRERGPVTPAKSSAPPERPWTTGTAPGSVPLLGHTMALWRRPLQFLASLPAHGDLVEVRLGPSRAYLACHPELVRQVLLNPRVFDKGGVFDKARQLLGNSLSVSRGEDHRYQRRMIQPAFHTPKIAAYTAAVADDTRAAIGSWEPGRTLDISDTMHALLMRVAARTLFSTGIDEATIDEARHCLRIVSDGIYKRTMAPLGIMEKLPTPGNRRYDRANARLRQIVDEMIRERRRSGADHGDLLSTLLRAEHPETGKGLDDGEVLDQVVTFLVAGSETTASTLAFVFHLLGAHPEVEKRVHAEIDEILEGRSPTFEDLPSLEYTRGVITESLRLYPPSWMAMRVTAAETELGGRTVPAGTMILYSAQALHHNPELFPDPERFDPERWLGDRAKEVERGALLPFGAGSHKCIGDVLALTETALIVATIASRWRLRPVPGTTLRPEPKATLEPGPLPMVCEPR

## Pdx-W106E (putidaredoxin, ferredoxin of the Pseudomonas putida PdR·Pdx redox system, W106E mutant) (natural protein)
  whole cell catalysis in E. coli (CotB3 with PdR/Pdx-W106E): formation of cyclooctat-9-en-5,7-diol from added cyclooctat-9-en-7-ol, GC-MS: 100%
